The results in this text go back to PMC6197822.

By stoichiometry N is commonly meant a count of units in the complex or per binding partner.

The assay has as its target Thr315Ala variant of the catalytic domain of ICR^Mc (ICR^Mccat^Thr315Ala) (Moraxella catarrhalis strain BC1). The assay can be described thus: crystal structure.

In turn, “Thr315Ala variant of the catalytic domain of ICR^Mc (ICR^Mccat^Thr315Ala) (domain or fragment)” returned a stoichiometry N of 2.
